The values below come from patent US20240270826A1 (NATIONAL RESEARCH COUNCIL OF CANADA, published 2024).

Common to all, as to test: SPR, antigen on chip
(In SPR one partner is held on a chip, and binding of the other changes the refractive index at the surface.)

The target of assay [1] is T1, SARS-CoV-2 spike trimer S (Wuhan, SmT1) (SARS-CoV-2 Wuhan).
T1 construct: extracellular domain

Assay [2] addresses SARS-CoV-2 S1-RBD fused to human Fc (S1-RBD-Fc) (SARS-CoV-2 Wuhan; human).
Assay [3] has as its target T2, SARS-CoV-2 S2 (aa686-1208) (Wuhan) (SARS-CoV-2 Wuhan, UniProt P0DTC2 686-1208).
T2 construct: NRC; FLAG, 6xHis tags

The target of assay [4] is T3, SARS-CoV-2 S1 (aa16-685) (Wuhan) (SARS-CoV-2 Wuhan, UniProt P0DTC2 16-685).
T3 construct: NRC; FLAG, 6xHis tags

The term Kd denotes the concentration at which binding is half-saturated. A lower Kd goes with a tighter complex. In general, koff refers to the first-order rate constant of dissociation. What is called kon is a measure of how fast the partners come together. Low readings indicate slower complex formation, high ones faster complex formation.

B1: NRCoV2-04 VHH (VHH)
VHH: AVQLVDSGGGLVQPGGSLRLSCAASGSPFSNVVMAWYRQAPGKQRERVAFISGGGIADYIMSVKGRFTISRDNAKNTVYLQMNSLKPEDTAVYYCWSSYESTWGQGTQVTVSS
With B1, in assay [1], binding was put at a Kd of 10 nM, the koff stood at 0.0198 s⁻¹ and the kon is 1.97e+06 M⁻¹ s⁻¹. Moreover, in assay [2], the Kd amounted to 12.5 nM, the koff amounted to 0.0192 s⁻¹ and the kon came out at 1.53e+06 M⁻¹ s⁻¹. Also, the binding result in assay [3] was “no binding”. In assay [4], binding was put at a Kd of 11.2 nM, the koff worked out at 0.018 s⁻¹ and the kon came out at 1.61e+06 M⁻¹ s⁻¹.

B2: NRCoV2-05 VHH (VHH)
VHH: EVKLVQSGGGLVQPGGSLRLSCAASGFIFSNYAMNWVRQAPGKGLEWVSGINSGGGDTRYADSVKGRFTVSRDNAKNTLYLQMNSLKPEDTGVYYCSKGPVSSYYGSGYDYRGQGTQVTVSS
In assay [1], B2 returned a Kd of 1.72 nM, a koff of 0.00743 s⁻¹ and a kon of 4.33e+06 M⁻¹ s⁻¹. Further, in assay [2], the dissociation constant Kd came to 2.33 nM, the off-rate (koff) amounted to 0.00585 s⁻¹ and the kon turned out to be 2.51e+06 M⁻¹ s⁻¹. In addition, the binding result in assay [3] is given as “no binding”. Besides, in assay [4], the Kd turned out to be 2 nM, the koff was found to be 0.00806 s⁻¹ and the association rate constant (kon) is 4.03e+06 M⁻¹ s⁻¹.

B3: NRCoV2-03 VHH (VHH)
VHH: EVQLVSSGGGLVQAGGSLRLSCTASGITFSYYAMGWYRQAPGQPRELVASMSNMDSTIYADSVKGRFTISRDNAKTTIYLQMNNLKPEDTAVYFCNIYGPTYSTRRNEYWGQGTQVTVSS
For the molecule B3, in assay [1], binding was put at a Kd of 1.34 nM, the koff was 0.000334 s⁻¹ and the kon turned out to be 250000 M⁻¹ s⁻¹. In assay [2], the affinity, expressed as Kd, was 1.53 nM; the koff came out at 0.000255 s⁻¹; the kon worked out at 166000 M⁻¹ s⁻¹. For the same molecule, in assay [3], the binding result is listed as “no binding”. Besides, in assay [4], the Kd stood at 1.09 nM, the dissociation rate constant (koff) is 0.000263 s⁻¹ and the kon amounted to 241000 M⁻¹ s⁻¹.

B4: NRCoV2-SR04 VHH (VHH)
VHH: QVQLVESGGGLVQAGGSLRLSCAASGRTFSSHTVGWYRQAPGKQRDLVAAISMGGNTNYADYADSVKGRFTISRDNAKNTLYLQMNSLKPEDTAVYYCNTAALVGNRLLPMATITWGQGTQVTVSS
In assay [1], B4 yielded a Kd of 0.14 nM, a koff of 0.000335 s⁻¹ and a kon of 2.39e+06 M⁻¹ s⁻¹. The binding result in assay [3] is on record as “no binding”. In assay [4], binding was put at a Kd of 0.226 nM, the koff amounted to 0.000493 s⁻¹ and the kon worked out at 2.18e+06 M⁻¹ s⁻¹.

B5: NRCoV2-1d VHH (VHH)
VHH: EVQLVESGGGSVQPGGSLRLSCAASGSTLDYYAIGWFRQAPGKEREWVSSVSSSDGNTLYADSVKGRFTISRDNAKNTVYLQMNSLKAEDTAVYVCAADYSMRPFAVGRWHRDYEYWGQGTQVTVSS
For the molecule B5, in assay [1], the Kd came out at 1.1 nM, the dissociation rate constant (koff) worked out at 0.00117 s⁻¹ and the kon turned out to be 1.06e+06 M⁻¹ s⁻¹. In assay [2], this molecule had a Kd of 2.1 nM, a koff of 0.00118 s⁻¹ and a kon of 562000 M⁻¹ s⁻¹. Moreover, in assay [3], the binding result is reported as “no binding”. In assay [4], this molecule registered a dissociation constant (Kd) of 1.32 nM, a koff of 0.00114 s⁻¹ and an association rate constant (kon) of 867000 M⁻¹ s⁻¹.

B6: NRCoV2-S2A4 VHH (VHH)
VHH: QVQLVQSGGGLVQAGGSLRLSCAVSGSPFRSNVMEWYRQAPGKQRELVASISTGGSRTYTDSVKGRFTISRDNAKNEAFLQMNSLKPEDTAVYYCHAAARDSHGIYLLDTWGQGTQVTVSS
In assay [1], B6 displayed a Kd of 12.8 nM, a koff of 0.000446 s⁻¹ and a kon of 34900 M⁻¹ s⁻¹. Also, in assay [3], binding was put at a Kd of 14.7 nM, the off-rate constant (koff) was found to be 0.000414 s⁻¹ and the on-rate constant (kon) came out at 28100 M⁻¹ s⁻¹. In addition, the binding result in assay [4] is recorded as “no binding”.

B7: NRCoV2-06 VHH (VHH)
VHH: EVQLVQSGGGLVQAGESLRLSCAASVSTFSSYAMGWYRQAPGKQRELVASIGFVGATYYIDSVKGRFTISRDNAKKTAYLQMNDLKPDDTAVYYCNARHYGGSEYWGQGTQVTVSS
Regarding B7, in assay [1], the Kd came out at 155 nM, the koff was 0.00469 s⁻¹ and the on-rate constant (kon) is 30200 M⁻¹ s⁻¹. Moreover, in assay [2], the Kd was 69.9 nM, the koff stood at 0.00415 s⁻¹ and the on-rate constant (kon) is 59400 M⁻¹ s⁻¹. For the same molecule, in assay [3], the binding result is reported as “no binding”. Moreover, in assay [4], the dissociation constant (Kd) worked out at 129 nM, the off-rate constant (koff) is 0.0133 s⁻¹ and the on-rate (kon) is 104000 M⁻¹ s⁻¹.

B8: NRCoV2-S2G4 VHH (VHH)
VHH: QVQLVQSGGGLVQAGGSLTLSCAPSGSTFSGYATNWYRQAPGKQRELVATISSDGDKNYADSVKGRFTISRDNAKNTVYLQMNSLKPEDTAVYYCNKHWWTGDWWGQGTQVTVSS
In assay [1], B8 yielded a Kd of 0.232 nM, a koff of 0.000207 s⁻¹ and a kon of 893000 M⁻¹ s⁻¹. In assay [3], this molecule returned an equilibrium dissociation constant (Kd) of 0.413 nM, an off-rate constant (koff) of 0.000382 s⁻¹ and a kon of 925000 M⁻¹ s⁻¹. Further, the binding result in assay [4] is given as “no binding”.

B9: NRCoV2-S2F3 VHH (VHH)
VHH: EVQLVQSGGGLVQAGGSLRLSCATSVRILSVPAMGWYRQAPGKEREMVAVITSGGSTNYADSVKGRFTISRDNAKNTVYLQMNSLKLEDTAVYQCNLRDILSQPFWGQGTQVTVSS
In assay [1], B9 returned a Kd of 3.03 nM, a dissociation rate constant (koff) of 0.000473 s⁻¹ and a kon of 156000 M⁻¹ s⁻¹. In addition, in assay [3], the Kd is 6.22 nM, the koff is 0.000629 s⁻¹ and the kon came to 101000 M⁻¹ s⁻¹. Besides, the binding result in assay [4] is “no binding”.

B10: NRCoV2-SR13 VHH (VHH)
VHH: EVQLVESGGGLVTTGGSLRLSCATSGSRFGSKHMAWYRQAPGKQRDLVAAISSGGSTHYGSSVKGRFTISRDNAKSTVYLQMNSLNPEDTAVFYCNMGGWDYRSNTYIPGSRSDYWGQGTQVTVSS
As for B10, in assay [1], the Kd is 2.62 nM, the koff stood at 0.00481 s⁻¹ and the kon came out at 1.83e+06 M⁻¹ s⁻¹. Further, the binding result in assay [3] is reported as “no binding”. In assay [4], the equilibrium dissociation constant (Kd) was 2.43 nM, the koff worked out at 0.00545 s⁻¹ and the kon turned out to be 2.25e+06 M⁻¹ s⁻¹.

B11: NRCoV2-20 VHH (VHH)
VHH: EVQLQQSGGGLVQPGGSLRLSCAASGRTFSNYVVGWFRQAPQAPGKDHEFVAVISGSDTETYYADSVKGRFTISRDNAKNTVYLQMNSLKPEDTAVYYCAADRGMSYYYTRATEYYYWGQGTQVTVSS
Take B11: in assay [1], the Kd came to 6.73 nM, the koff was 0.0159 s⁻¹ and the kon was found to be 2.37e+06 M⁻¹ s⁻¹. Also, in assay [2], binding was characterised by a dissociation constant (Kd) of 8.61 nM, the koff was 0.0123 s⁻¹ and the kon is 1.43e+06 M⁻¹ s⁻¹. Besides, the binding result in assay [3] is given as “no binding”. In assay [4], this molecule registered a dissociation constant (Kd) of 9.63 nM, a koff of 0.0189 s⁻¹ and a kon of 1.96e+06 M⁻¹ s⁻¹.

B12: NRCoV2-S2G3 VHH (VHH)
VHH: QVQLVQSGGGSVQAGGSLRLSCAASGSTFGIFLMGWRRQAPGKQRELVAHITSGGATNYADSVKGRFTISRDNAKNTVYLQMNSLEPEDTAVYYCYTTKRDDASVYWGQGTQVTVSS
Turning to B12, in assay [1], the affinity, expressed as Kd, was 3.74 nM; the off-rate constant (koff) was 0.000607 s⁻¹; the kon worked out at 162000 M⁻¹ s⁻¹. In assay [3], the equilibrium dissociation constant (Kd) came out at 4.28 nM, the dissociation rate constant (koff) amounted to 0.000627 s⁻¹ and the kon came to 147000 M⁻¹ s⁻¹. Further, the binding result in assay [4] was “no binding”.

B13: NRCoV2-SR16 VHH (VHH)
VHH: QVQLVQSAGGLVQAGGSLRLSCVVSGTTFSRYHMGWHRQAPGKQRDFVAGISTSGAVTYADSAKGRFTISRDNAKNTVYLEMNSLKLEDTALYYCNTGGWDYRSSTFIMGLNWGQGTQVTVSS
In assay [1], B13 displayed a Kd of 1.82 nM, a koff of 0.0012 s⁻¹ and a kon of 657000 M⁻¹ s⁻¹. Besides, the binding result in assay [3] is recorded as “no binding”. Also, in assay [4], the dissociation constant Kd stood at 1.55 nM, the koff worked out at 0.00115 s⁻¹ and the kon was 739000 M⁻¹ s⁻¹.

B14: NRCoV2-SR03 VHH (VHH)
VHH: AVQLVDSGGGLVQAGGSLRLSCAASGSIFSNNHMGWYRQAPGKQRELVAAISSGGKTNYADFAKGRFTISRDNAKNMVYLQMNSLKPEDTAVYYCNRGGWEYRSSYYIMGPHWGQGTQVTVSS
In the case of B14, in assay [1], binding was put at a Kd of 1.01 nM, the koff came out at 0.00102 s⁻¹ and the association rate constant (kon) amounted to 1.01e+06 M⁻¹ s⁻¹. Also, in assay [3], the binding result is recorded as “no binding”. In assay [4], this molecule registered a dissociation constant Kd of 1.13 nM, a dissociation rate constant (koff) of 0.00103 s⁻¹ and a kon of 905000 M⁻¹ s⁻¹.

B15: NRCoV2-18 VHH (VHH)
VHH: EVQLVESGGGLVQAGGSLRLSCVASGITISGYNMAWWRQTRGKQTERVAFINSGGSTTYSDSVKGRFTISRDNGKNTAYLQMNSLNAEDTADYFCSLHTSHDYWGQGTQVTVSS
In assay [1], B15 returned a dissociation constant Kd of 0.384 nM, a koff of 0.000152 s⁻¹ and a kon of 395000 M⁻¹ s⁻¹. In assay [2], this molecule came in with a dissociation constant Kd of 0.736 nM, a koff of 0.000197 s⁻¹ and a kon of 268000 M⁻¹ s⁻¹. The binding result in assay [3] is reported as “no binding”. In assay [4], this molecule registered a Kd of 0.536 nM, an off-rate constant (koff) of 0.000165 s⁻¹ and an on-rate (kon) of 308000 M⁻¹ s⁻¹.

B16: NRCoV2-02 VHH (VHH)
VHH: EVQLVESGGGLVQAGGSLRLSCAASGFTFSNYAMNWVRQAPGKGLEWVSGISGRGDDTRYADSVKGRFTISRDNAKNTLFLQMRSLRPEDTGVYRCTKGPDLYYFGSGYSDRGQGTQVTVSS
Take B16: in assay [1], the dissociation constant (Kd) is 0.661 nM, the dissociation rate constant (koff) amounted to 0.00141 s⁻¹ and the kon worked out at 2.14e+06 M⁻¹ s⁻¹. Further, in assay [2], the affinity, expressed as Kd, was 0.773 nM; the koff is 0.00141 s⁻¹; the on-rate (kon) came to 1.83e+06 M⁻¹ s⁻¹. The binding result in assay [3] is “no binding”. Moreover, in assay [4], binding was characterised by a dissociation constant (Kd) of 0.659 nM, the koff worked out at 0.00138 s⁻¹ and the kon amounted to 2.1e+06 M⁻¹ s⁻¹.
